Reference: patent publication US20240024851A1

B1: anti-AAV-VHH antibody VHH1 (VHH)
VHH: QVQLVESGGGLVQAGGSLRLSCAASGRTFSSYAMGWFRQAPGKEREIVASISWNGGSTDYADSVKGRFTISRDNAKNTVYLQMNSLKPEDTAVYYCAADSTNWVFYDYWGQGTQVTVSS

Experiments:
[1] = target: adeno-associated virus type 2 (AAV2) particles (adeno-associated virus type 2) (UniProt P03135); assay: affinity column (beads), AAV2 crude liquid, 0.2 mL/min, qPCR
[2] = target: adeno-associated virus type 2 (AAV2) particles (adeno-associated virus type 2) (UniProt P03135); assay: affinity column (beads), AAV2 crude liquid, retention time 10 sec, qPCR
[3] = target: adeno-associated virus type 2 (AAV2) particles (adeno-associated virus type 2) (UniProt P03135); assay: affinity column (beads), AAV2 crude liquid, retention time 5 sec, qPCR
[4] = target: adeno-associated virus type 2 (AAV2) particles (adeno-associated virus type 2) (UniProt P03135); assay: affinity column (beads), AAV2 pre-treatment liquid, 0.2 mL/min, qPCR
[5] = target: adeno-associated virus type 1 (AAV1) particles (adeno-associated virus type 1); assay: batch adsorption of AAV1 pre-treatment liquid to discs (ligand on nonwoven fabric 1), acid elution, qPCR

Molecule | leaked AAV to FT [1] | ratio of leaked AAV to recovered AAV [1] | ratio of residual AAV to recovered AAV [1] | recovered AAV in elution step [1] | residual AAV in washing step [1] | leaked AAV to FT [2] | ratio of leaked AAV to recovered AAV [2] | ratio of residual AAV to recovered AAV [2] | recovered AAV in elution step [2] | residual AAV in washing step [2] | leaked AAV to FT [3] | ratio of leaked AAV to recovered AAV [3] | ratio of residual AAV to recovered AAV [3] | recovered AAV in elution step [3] | residual AAV in washing step [3] | ratio of residual AAV to recovered AAV [4] | recovered AAV in elution step [4] | residual AAV in washing step [4] | amount of the AAV1 adsorbed [5]
POROS CaptureSelect AAVX (ligand of the commercial affinity resin, Thermo Scientific) (VHH) | 5.97e+09 vg | 1% | 17% | 8.77e+11 vg | 1.49e+11 vg | 4.19e+10 vg | 5% | 17% | 8.66e+11 vg | 1.47e+11 vg | 1.38e+11 vg | 19% | 22% | 7.42e+11 vg | 1.67e+11 vg | 48.8% | 5.75e+11 vg | 2.8e+11 vg | 
B1 |  |  |  |  |  |  |  |  |  |  |  |  |  |  |  |  |  |  | 1.1e+13 vg/mL-column
